# Laboratory results reported in publication PMC4996939.
# B1: HA-tagged TGF-β type I receptor ALK5 [not stated] / Myc-tagged mouse Fscn1 [mouse] (parent)
# chain 1: not shown
# chain 2: LQCFCHLCTKDNFTCVTDGLCFVSVTETTDKVIHNSMCIAEIDLIPRDRPFVCAPSSKTGSVTTTYCCNQDHCNKIELPTTVKSSPGLGPVELAAVIAGPVCFVCISLMLMVYICHNRTVIHHRVPNEEDPSLDRPFISEGTTLKDLIYDMTTSGSGSGLPLLVQRTIARTIVLQESIGKGRFGEVWRGKWRGEEVAVKIFSSREERSWFREAEIYQTVMLRHENILGFIAADNKDNGTWTQLWLVSDYHEHGSLFDYLNRYTVTVEGMIKLALSTASGLAHLHMEIVGTQGKPAIAHRDLKSKNILVKKNGTCCIADLGLAVRHDSATDTIDIAPNHRVGTKRYMAPEVLDDSINMKHFESFKRADIYAMGLVFWEIARRCSIGGIHEDYQLPYYDLVPSDPSVEEMRKVVCEQKLRPNIPNRWQSCEALRVMAKIMRECWYANGAARLTALRIKKTLSQLSQQEGIKM
# B2: HA-tagged Activin/Nodal type I receptor ALK4 [not stated] / Myc-tagged mouse Fscn1 [mouse] (parent)
# chain 1: not shown
# chain 2: SGPRGVQALLCACTSCLQANYTCETDGACMVSIFNLDGMEHHVRTCIPKVELVPAGKPFYCLSSEDLRNTHCCYTDYCNRIDLRVPSGHLKEPEHPSMWGPVELVGIIAGPVFLLFLIIIIVFLVINYHQRVYHNRQRLDMEDPSCEMCLSKDKTLQDLVYDLSTSGSGSGLPLFVQRTVARTIVLQEIIGKGRFGEVWRGRWRGGDVAVKIFSSREERSWFREAEIYQTVMLRHENILGFIAADNKDNGTWTQLWLVSDYHEHGSLFDYLNRYTVTIEGMIKLALSAASGLAHLHMEIVGTQGKPGIAHRDLKSKNILVKKNGMCAIADLGLAVRHDAVTDTIDIAPNQRVGTKRYMAPEVLDETINMKHFDSFKCADIYALGLVYWEIARRCNSGGVHEEYQLPYYDLVPSDPSIEEMRKVVCDQKLRPNIPNWWQSYEALRVMGKMMRECWYANGAARLTALRIKKTLSQLSVQEDVKI
# Variants of: B1
# Test: co-immunoprecipitation (IP anti-Myc, IB anti-HA) with band quantification
# Details: transfected cells in 60 mm dishes, ALK5 KR-HA 2 μg, Myc-mFscn1 1.5 μg
row,ratio to parent,Variant
1,0.56,chain 2 K199R

# Same assay, conditions: HEK293 cells, 60 mm dishes, CA-ALK5-HA 2 μg, Myc-mFscn1 1.5 μg, no TGF-β1 or Activin A in the CA lane
row,ratio to parent,Variant
1,1.87,chain 2 T171D

# Variants of: B2
# Test: as above
# Details: HEK293 cells, 60 mm dishes, CA-ALK4-HA 2 μg, Myc-mFscn1 1.5 μg, no TGF-β1 or Activin A in the CA lane
row,ratio to parent,Variant
1,2.34,chain 2 T183D
